T1: N-terminally tagged biotinylated cyno TSLP (cynomolgus, UniProt A0A7N9CAT7 29-159, biotinylated (site not stated))
T1 construct: Captured on a streptavidin C1 chip in the Biacore assay; also called recombinant mammalian cell-expressed cyno TSLP; not shown: N-terminal tag
T1 sequence: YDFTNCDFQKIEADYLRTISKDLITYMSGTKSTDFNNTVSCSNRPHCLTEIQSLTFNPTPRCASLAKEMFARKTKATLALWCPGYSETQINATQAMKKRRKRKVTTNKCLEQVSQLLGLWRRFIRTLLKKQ

B1: cyno TSLP (ligand, cynomolgus)
chain: YDFTNCDFQKIEADYLRTISKDLITYMSGTKSTDFNNTVSCSNRPHCLTEIQSLTFNPTPRCASLAKEMFARKTKATLALWCPGYSETQINATQAMKKRRKRKVTTNKCLEQVSQLLGLWRRFIRTLLKKQ
notes: Cyno TSLP as used in solution in the KinExA assay; also called Cynomolgus TSLP
B2: Fab 1 (Fab, V domains shown)
VH: QMQLVESGGGVVQPGRSLRLSCAASGFTFRTYGMHWVRQAPGKGLEWVAVIWYDGSNKHYADSVKGRFTITRDNSKNTLNLQMNSLRAEDTAVYYCARAPQWELVHEAFDIWGQGTMVTVSS
VL: SYVLTQPPSVSVAPGQTARITCGGNNLGSKSVHWYQQKPGQAPVLVVYDDSDRPSWIPERFSGSNSGNTATLTISRGEAGDEADYYCQVWDSSSDHVVFGGGTKLTVLG
notes: The claims call it an IgG1 Fab; It was injected as monomerized Fab1 in the Biacore assay; also called anti-TSLP Fab

Columns and labels:
Fab 1 [1] = target: B2; assay: KinExA, cyno TSLP titrated into 40 pM fixed Fab 1 (open squares); free Fab 1 captured on hu TSLP-coated beads; the midpoint depends on the fixed Fab concentration
Description: (§1) The KinExA methodology has been reviewed (Darling and Brault, 2004).
(§2) The KinExA software was used to calculate the equilibrium dissociation constant (KD).

Fab 1 [2] = target: B2; assay: KinExA, cyno TSLP titrated into 1000 pM fixed Fab 1 (filled diamonds); free Fab 1 captured on hu TSLP-coated beads; the midpoint depends on the fixed Fab concentration
Description: as §1, §2

cyno TSLP = target: B1; assay: KinExA, solution phase; global 1:1 fit to two datasets
Description: as §1, §2

[3] = target: T1, N-terminally tagged biotinylated cyno …; assay: SPR, Biacore 8K; biotinylated TSLP on streptavidin C1 chip, Fab1 injected; 1:1 Langmuir model
Description: Streptavidin surfaces were prepared using lyophilized streptavidin that was reconstituted with D-PBS. Briefly, streptavidin was diluted to 4 μg mL-1 in 10 mM sodium acetate pH 4.5 and covalently immobilized to three flow cell surfaces of a S Series C1 biosensor chip by standard amine coupling methods. A final streptavidin surface of 170 response units (RUs) was achieved. The amine coupling reagents were also used to prepare a control blank surface, with no immobilized streptavidin, to serve as a reference surface within each flow cell. […] The low level of analyte binding ensured that mass-transport induced artefacts were minimized, especially when combined with the relatively fast, 50 μL min-1 assay flow-rates used during the kinetics measurement steps. […] Multiple buffer-only injections were made under the same conditions throughout the experiment to allow for double reference processing of the final sensorgram sets.
The chip surface was fully regenerated by flowing two 30 second pulses of 10 mM glycine pH 1.7. Binding affinity and kinetics were determined using 1:1 Langmuir model.

| Binder | IC50 (read off the curve) (Fab 1 [1]) | IC50 (read off the curve) (Fab 1 [2]) | Kd (cyno TSLP) | Kd [3] |
| --- | --- | --- | --- | --- |
| B1 | ~0.04 nM | ~0.6 nM | – | – |
| B2 | – | – | 0.0136 nM | 0.0884 nM |
